Among the data in patent US20190360025A1 are Counts and SBR values, retold here.

For experiment [1], the target named is tumor necrosis factor alpha (TNF-α), R&D Systems 210-TA-005 (UniProt P01375). Nature of the experiment: c-PLA 10X probes, human plasma; TNF-α 1.00E-08 M.
Experiment [2] has the same target. Nature of the experiment: c-PLA, buffer; TNF-α 1.00E-12 M.
Experiment [3] shares this target. Nature of the experiment: c-PLA, buffer; TNF-α 1.00E-11 M.
For experiment [4] the target is unchanged. Nature of the experiment: c-PLA 1X probes, human plasma; TNF-α 1.00E-10 M.
The target is the same in experiment [5]. Nature of the experiment: t-PLA, buffer; TNF-α 1.00E-09 M.
The target is the same in experiment [6]. Nature of the experiment: c-PLA 10X probes, human plasma; TNF-α 1.00E-13 M.
Experiment [7] shares this target. Nature of the experiment: c-PLA 1X probes, buffer; TNF-α 1.00E-11 M.
Experiment [8] concerns the target vascular endothelial growth factor (VEGF), R&D Systems 293-VE-010 (human) (UniProt P15692). Nature of the experiment: t-PLA, buffer; VEGF 1.00E-14 M.
Sequence of UniProt P15692 (P15692 other isoform, or with tags, fused parts or gaps limits assumed): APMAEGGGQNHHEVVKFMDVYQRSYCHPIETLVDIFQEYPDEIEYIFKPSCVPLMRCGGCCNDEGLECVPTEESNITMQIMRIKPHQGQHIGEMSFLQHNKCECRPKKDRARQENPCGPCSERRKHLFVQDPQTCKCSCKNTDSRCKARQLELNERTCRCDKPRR
For experiment [9] the target is unchanged. Nature of the experiment: t-PLA, chicken plasma; VEGF 1.00E-13 M.
Experiment [10] has the same target. Nature of the experiment: t-PLA, human plasma; VEGF 1.00E-11 M.

Sequence of UniProt P01375 (P01375 77-233 limits assumed): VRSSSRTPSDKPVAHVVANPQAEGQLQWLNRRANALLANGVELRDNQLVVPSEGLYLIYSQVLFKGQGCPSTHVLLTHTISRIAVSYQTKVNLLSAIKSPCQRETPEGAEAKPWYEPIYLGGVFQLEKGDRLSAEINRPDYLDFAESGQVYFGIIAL

Take “affinity-purified polyclonal anti-TNF-α antibody (R&D Systems AF-210-NA)”: the Counts in [1] worked out at 158000; in [2] it was 4.62; in [3], 22.1; in experiment [4] it was 331; in experiment [5] it was 1.98e+07; in experiment [6], 2030. Besides, in [7], the Counts was 22.1. The SBR in [1] stood at 73; in experiment [4], 4.4; in experiment [5], 116; in experiment [7], 1.4.
As for “affinity-purified polyclonal anti-VEGF antibody (R&D Systems AF-293-NA)”, the Counts in experiment [8] worked out at 595000; in experiment [9], 133000; in experiment [10], 7.15e+06. The substance further gave an SBR in [8] of 1.7.
